Consider 33 substances from publication PMC9092470, “Understanding p300-transcription factor interactions using sequence variation and hybridization†” (RSC Chemical Biology, 2022).

Experiment [1] addresses GST-tagged p300 CH1 domain (residues 330–420) (UniProt Q09472). Nature of the experiment: fluorescence polarisation; fluorescence anisotropy by the fluorescence of GFP; GFP-HIF-1α 776–826 variants with GST-p300; 25 mM Tris–HCl, 150 mM NaCl, 1 mM DTT, pH 7.4; 1:1 model, each p300 site of the GST dimer taken as independent. In general terms: Polarisation of emitted light reports the rotation of a fluorescent probe.

Experiment [2] has as its target GST-p300 (p300 CH1 domain, residues 330–420) (Homo sapiens, UniProt Q09472). In words: Fluorescence anisotropy direct titration of GFP-HIF-1α776–826 variants with GST-p300. Format: binding. The conditions noted are these: 50 nM GFP-HIF-1α776–826 variant, GST-p300 serial dilution, 25 mM Tris–HCl, 150 mM NaCl, 1 mM DTT, pH 7.4, 27 °C, 1:1 model, ± standard error of fitted value, technical triplicates. The source says:
To experimentally compare the predictions, we carried out an in vitro biophysical study of several HIF-1α sequence variants. We assessed predicted hot residues and their interactions with p300 using the NMR structure to visualize the structural basis behind the predictions (See ESI, ^† Fig. S2). These analyses helped refine a first series of alanine variants to prepare. […] HIF-1α776–826 sequence variants were recombinantly prepared based on the predictions to test their binding to the recombinantly prepared p300 (Fig. 2). Given the length of the peptide ([…]), this was considered advantageous as it obviates the need to chemically synthesise, label and purify multiple variants. As the C-TAD domain is unstructured in isolation it was recombinantly expressed as a fusion protein with GFP. The green-fluorescent protein (GFP) tag was used for fluorescence anisotropy (FA) experiments to determine the binding affinity of HIF-1α776–826 C-TAD variants to p300. As the CH1 domain of p300 is a small domain of 11 kDa it was recombinantly expressed as a fusion protein with GST to increase its size and thus the signal to noise in the FA experiments. We established an assay where the interaction between GFP-tagged wt HIF-1α776–826 and GST-tagged p300 was monitored by FA, using the fluorescence of GFP. GST dimerises with single digit nM Kd[61] (and in our hands exists as a dimer in size exclusion chromatography analyses, see ESI, ^† Fig. S15 for protein characterization data), thus two molecules of GFP-HIF-1α could bind to the GST-p300 dimer (Fig. 2a). We make the assumption that each p300 binding site behaves independently and analyse the binding isotherm using a 1 : 1 model.
Fig. 2 Biophysical analyses on the effects of HIF-1α sequence variant p300 binding affinity. (a) schematic depicting the equilibrium for interaction of GFP-HIF-1α776–826 variants and GST-p300 as studied by fluorescence anisotropy; (b) representative fluorescence anisotropy titration data for sAV and mAV GFP-HIF-1α776–826 peptides interacting with GST-p300 (25 mM Tris–HCl, 150 mM NaCl, 1 mM DTT, pH 7.4), error bars represent standard deviation of technical triplicates; (c) raw ITC data (upper) and fitted thermogram (lower) for the interaction of GFP-HIF-1α776–826 peptides with p300 (37 °C in 25 mM Tris–HCl, 150 mM NaCl, 1 mM DTT, pH 7.4) using 10 μM p300 in the cell and 100 μM GFP-HIF-1α776–826 variant in the syringe; error bars represent estimated integration errors (d) thermodynamic signatures for each interaction. […]
7.4 buffer or dialysed into 25 mM Tris, 150 mM NaCl, 1 mM DTT pH 7.4 buffer.
GSTp300 protein was serially diluted in buffer (25 mM Tris-HCl, 150 mM NaCl, 1mM DTT, pH 7.4) and GFP-HIF-1α (50nM final concentration) was added, the plates were read after 0 min, 60 min, 4 h and 24 h, and incubated at room temperature in between. Each experiment was run in triplicate and the fluorescence anisotropy measured using an EnVision 2103 MultiLabel plate reader (Perkin Elmer) with excitation at 480 nm and emission at 535 nm (30 nm bandwidths). The recorded temperature for all measurements was 27°C ± 1°C. In parallel, a control experiment was performed in which no GFP-HIF was added and the volume made up with additional buffer, this blank was deducted from the raw data for each of the three repeats.
The intensity was calculated for each point using eqn (1) and used to calculated anisotropy […]
using eqn (2). From a plot of anisotropy against GST-p300 concentration the minimum and maximum anisotropies were obtained using a logistic sigmoidal fit in OriginPro 8.6. This allowed the conversion to fraction bound (eqn (3)). The data were then fitted using eqn (4) in OriginPro 8.6 to determine the dissociation constant, Kd. […]
5 µl injections and 180 s spacing between injections, for 40 injections. Titrations were performed in 40 mM Na-phosphate, pH 7.5 100 mM NaCl, 1 mM DTT buffer except for GFP- […]

No end group written: not given here.

Chain of GST-p300 (p300 CH1 domain, residues 330–420) (Q09472 330-420): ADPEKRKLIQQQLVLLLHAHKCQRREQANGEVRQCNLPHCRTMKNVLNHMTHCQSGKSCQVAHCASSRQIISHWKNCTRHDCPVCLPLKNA

Take “GFP-HIF-1α 776–826 L795A (from UniProt Q16665 776-826) (domain or fragment)”: in experiment [1], the Kd is 118 nM.

On to “L818A L822A: GFP-HIF-1α776–826 C-TAD multiple alanine variant ({GFP}-SDLACRLLGQSMDESGLPQLTSYDCEVNAPIQGSRNLLQGEEALRAADQVN; cysteine pairing not given here)”, for which the Kd in experiment [2] stood at 126 ± 33 nM.

With “L795A D799A: GFP-HIF-1α776–826 C-TAD multiple alanine variant ({GFP}-SDLACRLLGQSMDESGLPQATSYACEVNAPIQGSRNLLQGEELLRALDQVN; cysteine pairing not given here)”, in experiment [2], the Kd came to 255 ± 44 nM.

“GFP-HIF-1α 776–826 D799A E801A N803A (from UniProt Q16665 776-826) (domain or fragment)”: in experiment [1], the Kd turned out to be 590 nM.

Take “L795A: GFP-HIF-1α776–826 C-TAD single alanine variant L795A ({GFP}-SDLACRLLGQSMDESGLPQATSYDCEVNAPIQGSRNLLQGEELLRALDQVN; cysteine pairing not given here)”: binding in experiment [2] was put at a Kd of 118 ± 19 nM.

For the substance “GFP-HIF-1α 776–826 V825A (from UniProt Q16665 776-826) (domain or fragment)”, in experiment [1], the Kd is 198 nM.

In experiment [2], “L795A D799A L818A L822A V825A: GFP-HIF-1α776–826 C-TAD multiple alanine variant ({GFP}-SDLACRLLGQSMDESGLPQATSYACEVNAPIQGSRNLLQGEEALRAADQAN; cysteine pairing not given here)” came in with a Kd of 153 ± 19 nM.

“GFP-HIF-1α 776–826 D799A (from UniProt Q16665 776-826) (domain or fragment)” gave an equilibrium dissociation constant (Kd) in experiment [1] of 114 nM.

Turning to “L818A L822A V825A: GFP-HIF-1α776–826 C-TAD multiple alanine variant ({GFP}-SDLACRLLGQSMDESGLPQLTSYDCEVNAPIQGSRNLLQGEEALRAADQAN; cysteine pairing not given here)”, in experiment [2], the Kd came to 54 ± 33 nM.

Consider “V825A: GFP-HIF-1α776–826 C-TAD single alanine variant V825A ({GFP}-SDLACRLLGQSMDESGLPQLTSYDCEVNAPIQGSRNLLQGEELLRALDQAN; cysteine pairing not given here)”, for which, in experiment [2], the Kd stood at 198 ± 37 nM.

Substance “GFP-HIF-1α 776–826 L818A L822A D823A (from UniProt Q16665 776-826) (domain or fragment)” returned a Kd in experiment [1] of 247 nM.

Turning to “GFP-HIF-1α 776–826 E817A (from UniProt Q16665 776-826) (domain or fragment)”, in experiment [1], the Kd turned out to be 128 nM.

“D799A E801A N803A: GFP-HIF-1α776–826 C-TAD multiple alanine variant ({GFP}-SDLACRLLGQSMDESGLPQLTSYACAVAAPIQGSRNLLQGEELLRALDQVN; cysteine pairing not given here)”: the Kd in experiment [2] came to 590 ± 302 nM.

The substance “GFP-HIF-1α 776–826 L818A L822A V825A (from UniProt Q16665 776-826) (domain or fragment)” gave a Kd in experiment [1] of 54 nM.

In the case of “L818A L822A D823A: GFP-HIF-1α776–826 C-TAD multiple alanine variant ({GFP}-SDLACRLLGQSMDESGLPQLTSYDCEVNAPIQGSRNLLQGEEALRAAAQVN; cysteine pairing not given here)”, in experiment [2], the Kd came to 247 ± 75 nM.

Substance “GFP-HIF-1α 776–826 L795A D799A (from UniProt Q16665 776-826) (domain or fragment)” registered a Kd in experiment [1] of 255 nM.

The substance “Q824A: GFP-HIF-1α776–826 C-TAD single alanine variant Q824A ({GFP}-SDLACRLLGQSMDESGLPQLTSYDCEVNAPIQGSRNLLQGEELLRALDAVN; cysteine pairing not given here)” returned a Kd in experiment [2] of 31 ± 8 nM.

Substance “S797A: GFP-HIF-1α776–826 C-TAD single alanine variant S797A ({GFP}-SDLACRLLGQSMDESGLPQLTAYDCEVNAPIQGSRNLLQGEELLRALDQVN; cysteine pairing not given here)” gave a dissociation constant (Kd) in experiment [2] of 37 ± 16 nM.

In turn, “GFP-HIF-1α 776–826 E801A L822A (from UniProt Q16665 776-826) (domain or fragment)” came in with a Kd in experiment [1] of 224 nM.

Substance “E817A: GFP-HIF-1α776–826 C-TAD single alanine variant E817A ({GFP}-SDLACRLLGQSMDESGLPQLTSYDCEVNAPIQGSRNLLQGEALLRALDQVN; cysteine pairing not given here)” gave a Kd in experiment [2] of 128 ± 11 nM.

With “GFP-HIF-1α 776–826 S797A (from UniProt Q16665 776-826) (domain or fragment)”, in experiment [1], the Kd was determined as 37 nM.

“GFP-HIF-1α 776–826 L822A (from UniProt Q16665 776-826) (domain or fragment)”: the Kd in experiment [1] amounted to 109 nM.

As to “GFP-HIF-1α 776–826 Q824A (from UniProt Q16665 776-826) (domain or fragment)”, the Kd in experiment [1] stood at 31 nM.

In experiment [2], “L818A: GFP-HIF-1α776–826 C-TAD single alanine variant L818A ({GFP}-SDLACRLLGQSMDESGLPQLTSYDCEVNAPIQGSRNLLQGEEALRALDQVN; cysteine pairing not given here)” yielded a Kd of 237 ± 40 nM.

In experiment [1], “GFP-HIF-1α 776–826 L795A D799A L818A L822A V825A (from UniProt Q16665 776-826) (domain or fragment)” had a Kd of 153 nM.

Substance “L795A D799A L822A: GFP-HIF-1α776–826 C-TAD multiple alanine variant ({GFP}-SDLACRLLGQSMDESGLPQATSYACEVNAPIQGSRNLLQGEELLRAADQVN; cysteine pairing not given here)” showed a Kd in experiment [2] of 174 ± 45 nM.

In turn, “D799A: GFP-HIF-1α776–826 C-TAD single alanine variant D799A ({GFP}-SDLACRLLGQSMDESGLPQLTSYACEVNAPIQGSRNLLQGEELLRALDQVN; cysteine pairing not given here)” came in with a Kd in experiment [2] of 114 ± 53 nM.

“GFP-HIF-1α 776–826 L818A L822A (from UniProt Q16665 776-826) (domain or fragment)” displayed a Kd in experiment [1] of 126 nM.

In the case of “L822A: GFP-HIF-1α776–826 C-TAD single alanine variant L822A ({GFP}-SDLACRLLGQSMDESGLPQLTSYDCEVNAPIQGSRNLLQGEELLRAADQVN; cysteine pairing not given here)”, the Kd in experiment [2] amounted to 109 ± 66 nM.

Substance “E801A L822A: GFP-HIF-1α776–826 C-TAD multiple alanine variant ({GFP}-SDLACRLLGQSMDESGLPQLTSYDCAVNAPIQGSRNLLQGEELLRAADQVN; cysteine pairing not given here)” showed a Kd in experiment [2] of 224 ± 18 nM.

In turn, “GFP-HIF-1α 776–826 L818A (from UniProt Q16665 776-826) (domain or fragment)” yielded a Kd in experiment [1] of 237 nM.

Consider “GFP-HIF-1α 776–826 L795A D799A L822A (from UniProt Q16665 776-826) (domain or fragment)”, for which the Kd in experiment [1] is 174 nM.

“GFP-HIF-1α 776–826 N803A (from UniProt Q16665 776-826) (domain or fragment)” displayed a Kd in experiment [1] of 120 nM.

By Kd is commonly meant the constant that tells how readily two partners part at equilibrium.
